Where no end group is shown, it is not given here. The star is where a group is joined. FITC = O=C1OC2(c3ccc(O)cc3Oc3cc(O)ccc32)c2ccc(NC(=S)*)cc21; Ahx = NCCCCCC(=O)O
B1: AAV 09YN Cap-BR (N-terminal domain fragment of AAV 09YN VP1 encompassing basic regions 1-3, residues 112-169) (domain or fragment)
chain: ANALFQAKKRVLEPFGLVEGEPEPKKTPSVKRPHASPDSSSGVGKKGDQPARKRLDFG
notes: not shown: GST, N-terminal, cleaved
B2: Synthetic FITC labelled AAV 09YN Cap-BR peptide (residues 117-167) (peptide)
peptide: {FITC-Ahx}-QAKKRVLEPFGLVEGEPEPKKTPSVKRPHASPDSSSGVGKKGDQPARKRLD
notes: also called FITC-tagged AAV 09YN Cap-BR peptide; non-mutated 09YN Cap-BR; source: synthetic peptide (GenScript)

Experiments:
[1] = biological target: T1, Mouse importin α2 lacking the IBB domain (mImpα2DIBB) (mouse, UniProt P52293 70-529); assay: crystal structure; co-purified complex of AAV 09YN Cap-BR and IMPα2; hanging drop, 0.75 M Na citrate, 0.1 M HEPES pH 7.5, 22 °C; 2.4 Å; conditions: both partners purified
[2] = biological target: T1, Mouse importin α2 lacking the IBB …; assay: fluorescence polarisation; FITC-tagged peptide ('2 nm' [sic]) with importin two-fold serially diluted from 4.5 µM across 23 wells, 200 µl, GST Buffer A (50 mM Tris, 125 mM NaCl); three independent experiments; conditions: both partners purified

Binder | binding result [1] | Kd [2]
B1 | binds | –
B2 | – | 656 nM

Reference: paper PMC10999750, “Structural basis for nuclear import of bat adeno-associated virus capsid protein” (The Journal of General Virology, 2024)
